B1: M5: human anti-mesothelin scFv SEQ ID NO: 43; full CAR SEQ ID NO: 67 (protein)
scFv: QVQLVQSGAEVEKPGASVKVSCKASGYTFTDYYMHWVRQAPGQGLEWMGWINPNSGGTNYAQKFQGRVTMTRDTSISTAYMELSRLRSDDTAVYYCASGWDFDYWGQGTLVTVSSGGGGSGGGGSGGGGSGGGGSDIVMTQSPSSLSASVGDRVTITCRASQSIRYYLSWYQQKPGKAPKLLIYTASILQNGVPSRFSGSGSGTDFTLTISSLQPEDFATYYCLQTYTTPDFGPGTKVEIK
B2: M11: human anti-mesothelin scFv SEQ ID NO: 49; full CAR SEQ ID NO: 73 (protein)
scFv: QVQLQQSGAEVKKPGASVKVSCKASGYTFTGYYMHWVRQAPGQGLEWMGWINPNSGGTNYAQNFQGRVTMTRDTSISTAYMELRRLRSDDTAVYYCASGWDFDYWGQGTLVTVSSGGGGSGGGGSGGGGSGGGGSDIRMTQSPSSLSASVGDRVTITCRASQSIRYYLSWYQQKPGKAPKLLIYTASILQNGVPSRFSGSGSGTDFTLTISSLQPEDFATYYCLQTYTTPDFGPGTKVEIK

How the values were obtained:
Ovcar8 = assay: OVCAR8 subcutaneous xenograft, single and double dose (Example 17); format: in vivo, NSG mice; conditions: for tumor growth / anti-tumor activity, single dose: 4×10^6 CAR+ T cells on day 14; for tumor growth / anti-tumor activity, double dose: 4×10^6 CAR+ T cells on days 14 and 19; for delta T/C value: day 52, versus Isotype group, single dose; for regression value / Regression (%) / Delta T/C (%): day 52; for Regression (%): double dose (second identical dose 5 days later); for Delta T/C (%): single dose of 4×10^6 CAR T cells i.v. on day 14, versus the Isotype group
Method: Cell line: OVCAR8 is a human ovarian cancer cell line that was derived from a patient with ovarian adenocarcinoma, and has been transduced to express mCherry. Cells were grown in RMPI medium containing 10% fetal bovine serum. This cell line grows adherent in tissue culture flasks. This cell line forms tumors in mice when implanted subcutaneously in the flank and mixed with matrigel. The addition of matrigel to the cells during the implantation allow for a matrix to develop in the flank of the mouse that provides a structure for the tumor cells to start growing on. Over 10-12 days, the matrigel plug degrades and the solid tumor that remains is made up of tumor cells and surrounding stromal cells. The OVCAR8 cells have been modified to express mCherry, so that that tumor cell growth can also be monitored by imaging the mice.
Mice: 6 week old NSG (NOD.Cg-Prkdc^scidIl2rg^tm1Wjl/SzJ) mice were received from the Jackson Laboratory (stock number 005557). Animals were allowed to acclimate in the Novartis NIBRI animal facility for at least 3 days prior to experimentation. Animals were handled in accordance with Novartis ACUC regulations and guidelines. Electronic transponders for animal identification were implanted on the left flank one day prior to tumor implantation. Mice were shaved on the right flank prior to tumor implantation.
Tumor implantation: OVCAR8 cells in log phase were harvested after tyrpsinization with 0.25% trypsin-EDTA. The cells were washed in 50 ml falcon tubes at 1200 rpm for 5 minutes, once in growth media and then two times in cold sterile PBS. The cells were resuspended in PBS at a concentration of 100×10^6 per ml and kept on ice. The PBS solution containing the cells was then mixed 1:1 with matrigel, resulting in a final concentration of 50×10^6 cells per ml of PBS-matrigel. The cells were placed on ice and immediately implanted in mice. Tumors were implanted subcutaneously in 200 ul on the right flank.
The OVCAR8 model endogenously expresses mesothelin and thus, can be used to test the in vivo efficacy of mesothelin directed CAR T cells. This model grows well when implanted subcutaneously in the flank of mice and can be calipered for tumor volume measurements. Upon implantation of 10×10^6 tumor cells in a 50:50 mix of PBS and matrigel, the tumors establish and can be accurately measured in one week. Within 13-15 days, the mean tumor volume is 100-200 mm^3, with tumors reaching an endpoint volume (1000-1200 mm^3) by 60-65 days. Anti-tumor activities of therapeutic agents are often tested once tumors are fully engrafted and matrigel resorbed. Thus, there is a large window with this model during which the anti-tumor activity of the CAR T cells can be observed.
CAR T cell dosing: Mice were dosed with 4×10^6 CART cells (13.3×10^6 total T cells) 14 days after tumor implantation. Cells were partially thawed in a 37 degree Celsius water bath and then completely thawed by the addition of 1 ml of cold sterile PBS to the tube containing the cells. The thawed cells were transferred to a 15 ml falcon tube and adjusted to a final volume of 10 mls with PBS. The cells were washed twice at 1000 rpm for 10 minutes each time and then counted on a hemocytometer. T cells were then resuspended at a concentration of 133×10^6 cells per ml of cold PBS and kept on ice until the mice were dosed. The mice were injected intravenously via the tail vein with 100 ul of the T cells for a dose of 4×10^6 CAR T cells (13.3×10^6 total T cells) per mouse. Seven mice per group were either treated with 100 ul of PBS alone (PBS) or T cells transduced with an isotype CAR (Isotype). 14 mice per group were treated with either the SS1 mesothelin CAR T cells, M5 mesothelin CAR T cells, or M11 mesothelin CART cells. Five days later the SS1, M5, and M11 groups were split in half and seven mice in each group were treated with an identical second dose of the CAR T cells. […]

Ovcar3 = assay: Luciferase-based killing assay; format: cell-based, human; conditions: for killing of target tumor cells: E:T 10:1 to 1:1, 20 hours, FIG. 16A; for specific killing within the panel of human meso CARs: FIGS. 17A and 17B
Method: The ability for the CART-MSLN to target and kill tumor cells was also assessed in vitro. A luciferase-based assay was used, with tumor cell lines expressing luciferase reporters. Target cells (tumor cells) were plated at 20,000 targets/well. CART-MSLN were added at varying effector:target ratios, from 10:1, 5:1, 2.5:1, and 1:1. The cells were cultured for 20 hours, and the luminescence of each well was detected to determine the percentage of target cells killed. Luciferase-expressing Ovcar3 (ovarian cancer) and U87 mg (glioblastoma) cell lines were used as target cells.

Molecule	tumor growth / anti-tumor activity, single dose (Ovcar8)	tumor growth / anti-tumor activity, double dose (Ovcar8)	delta T/C value (Ovcar8) [%]	regression value (Ovcar8; double dose) [%]	mice with complete regression (Ovcar8; double dose)	Regression (%) (Ovcar8)	Delta T/C (%) (Ovcar8)	killing of target tumor cells (Ovcar3)	specific killing within the panel of human meso CARs (Ovcar3)
B1	clear anti-tumor activity	regression as opposed to tumor growth inhibition	30.28	−63.90	four out of seven mice	−63.90	30.28	performed similarly well in killing target tumor cells	highest specific killing of Ovcar3 cells
B2	clear anti-tumor activity	regression as opposed to tumor growth inhibition	52.91	−15.80	–	−15.80	52.91	performed similarly well in killing target tumor cells	highest specific killing of Ovcar3 cells
